Article PMC9482650, “Quantitative fragmentomics allow affinity mapping of interactomes” (Nature Communications, 2022)

T1: NHERF3_1, Q5T2W1
T1 sequence (Q5T2W1 4-100, limits assumed, looked up): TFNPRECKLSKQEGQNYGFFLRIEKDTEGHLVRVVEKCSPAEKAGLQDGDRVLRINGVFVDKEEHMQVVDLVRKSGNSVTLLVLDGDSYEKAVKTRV

T2: LRRC7, Q96NW7
T2 sequence (Q96NW7 1440-1537, limits assumed, looked up): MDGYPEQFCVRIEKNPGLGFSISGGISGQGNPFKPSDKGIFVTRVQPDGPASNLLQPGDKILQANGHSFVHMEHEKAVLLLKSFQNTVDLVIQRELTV

T3: LIN7B, Q9HAP6
T3 sequence (Q9HAP6 88-185, limits assumed, looked up): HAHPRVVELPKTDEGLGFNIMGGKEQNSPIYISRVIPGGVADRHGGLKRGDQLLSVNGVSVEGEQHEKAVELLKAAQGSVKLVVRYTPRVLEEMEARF

T4: SNTG1, Q9NSN8
T4 sequence (Q9NSN8 52-150, limits assumed, looked up): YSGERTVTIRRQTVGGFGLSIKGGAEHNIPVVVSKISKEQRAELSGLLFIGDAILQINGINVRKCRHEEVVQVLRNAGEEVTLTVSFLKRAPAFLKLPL

T5: HTRA3, P83110
T5 sequence (P83110 354-453, limits assumed, looked up): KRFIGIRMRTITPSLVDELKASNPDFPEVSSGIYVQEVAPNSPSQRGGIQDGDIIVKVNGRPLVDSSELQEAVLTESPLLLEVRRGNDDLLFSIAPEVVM

T6: PCLO, Q9Y6V0
T6 sequence (Q9Y6V0 4491-4600, limits assumed, looked up): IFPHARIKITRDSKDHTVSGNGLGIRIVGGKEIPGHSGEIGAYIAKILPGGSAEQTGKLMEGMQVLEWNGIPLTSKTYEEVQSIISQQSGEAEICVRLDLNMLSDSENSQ

T7: CARD11, Q9BXL7
T7 sequence (Q9BXL7 662-765, limits assumed, looked up): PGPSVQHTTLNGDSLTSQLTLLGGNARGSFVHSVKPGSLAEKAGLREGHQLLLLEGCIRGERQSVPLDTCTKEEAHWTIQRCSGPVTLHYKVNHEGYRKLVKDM

T8: LNX2_2, Q8N448
T8 sequence (Q8N448 334-432, limits assumed, looked up): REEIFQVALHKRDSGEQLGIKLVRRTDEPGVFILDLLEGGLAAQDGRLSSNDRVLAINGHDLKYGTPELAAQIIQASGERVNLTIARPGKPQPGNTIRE

T9: NHERF3_3, Q5T2W1
T9 sequence (Q5T2W1 238-333, limits assumed, looked up): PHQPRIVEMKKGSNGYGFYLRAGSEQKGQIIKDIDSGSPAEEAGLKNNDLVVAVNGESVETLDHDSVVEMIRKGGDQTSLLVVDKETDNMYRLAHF


target: T1, NHERF3_1, Q5T2W1; experiment: holdup assay; parameters: key: below the threshold = too weak to quantify, mostly under pKd 3.1 to 4; settings: plain residues with an end cap or a label only (N-terminal biotin on a linker: ado-ado)

pKd	Binder
3.95	PYSESDDDWC [CACNA1A, O00555]
4	MQHQRTHTRV [ZSCAN30, Q86W11]

target: NHERF4_1, Q86UT5-2; experiment: holdup assay; parameters: key: below the threshold = too weak to quantify, mostly under pKd 3.1 to 4; settings: plain residues with an end cap or a label only (N-terminal biotin on a linker: ado-ado)
Sequence (Q86UT5 other isoform, or with tags, fused parts or gaps): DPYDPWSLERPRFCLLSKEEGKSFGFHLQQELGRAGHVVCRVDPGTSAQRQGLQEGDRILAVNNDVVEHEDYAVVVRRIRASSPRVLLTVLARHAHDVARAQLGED

pKd	Binder
4.01	PYSESDDDWC [CACNA1A, O00555]
below the threshold	MQHQRTHTRV [ZSCAN30, Q86W11]

target: IL16_3, Q14005; experiment: holdup assay; parameters: key: below the threshold = too weak to quantify, mostly under pKd 3.1 to 4; settings: plain residues with an end cap or a label only (N-terminal biotin on a linker: ado-ado)
Sequence (Q14005 1107-1207): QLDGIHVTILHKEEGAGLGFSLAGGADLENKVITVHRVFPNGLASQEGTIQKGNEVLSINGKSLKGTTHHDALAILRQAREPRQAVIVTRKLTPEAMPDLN

pKd	Binder
below the threshold	PYSESDDDWC [CACNA1A, O00555]
below the threshold	MQHQRTHTRV [ZSCAN30, Q86W11]

target: LDB3, O75112; experiment: holdup assay; parameters: key: below the threshold = too weak to quantify, mostly under pKd 3.1 to 4; settings: plain residues with an end cap or a label only (N-terminal biotin on a linker: ado-ado)
Sequence (O75112 1-94): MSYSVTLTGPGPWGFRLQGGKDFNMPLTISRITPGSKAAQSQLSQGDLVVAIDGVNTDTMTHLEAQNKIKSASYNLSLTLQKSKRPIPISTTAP

pKd	Binder
below the threshold	PYSESDDDWC [CACNA1A, O00555]
below the threshold	MQHQRTHTRV [ZSCAN30, Q86W11]

target: T2, LRRC7, Q96NW7; experiment: holdup assay; parameters: key: below the threshold = too weak to quantify, mostly under pKd 3.1 to 4; settings: plain residues with an end cap or a label only (N-terminal biotin on a linker: ado-ado)

pKd	Binder
below the threshold	PYSESDDDWC [CACNA1A, O00555]
below the threshold	MQHQRTHTRV [ZSCAN30, Q86W11]

target: T3, LIN7B, Q9HAP6; experiment: holdup assay; parameters: key: below the threshold = too weak to quantify, mostly under pKd 3.1 to 4; settings: plain residues with an end cap or a label only (N-terminal biotin on a linker: ado-ado)

pKd	Binder
3.9	PYSESDDDWC [CACNA1A, O00555]
below the threshold	MQHQRTHTRV [ZSCAN30, Q86W11]

target: LAP2, Q96RT1; experiment: holdup assay; parameters: key: below the threshold = too weak to quantify, mostly under pKd 3.1 to 4; settings: plain residues with an end cap or a label only (N-terminal biotin on a linker: ado-ado)
Sequence (Q96RT1 other isoform, or with tags, fused parts or gaps): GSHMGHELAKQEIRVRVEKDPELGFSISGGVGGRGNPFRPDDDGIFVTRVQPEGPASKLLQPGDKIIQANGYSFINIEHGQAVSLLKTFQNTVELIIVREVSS

pKd	Binder
3.87	PYSESDDDWC [CACNA1A, O00555]
3.89	MQHQRTHTRV [ZSCAN30, Q86W11]

target: Inadl_5, Q8NI35; experiment: holdup assay; parameters: key: below the threshold = too weak to quantify, mostly under pKd 3.1 to 4; settings: plain residues with an end cap or a label only (N-terminal biotin on a linker: ado-ado)
Sequence (Q8NI35 673-780): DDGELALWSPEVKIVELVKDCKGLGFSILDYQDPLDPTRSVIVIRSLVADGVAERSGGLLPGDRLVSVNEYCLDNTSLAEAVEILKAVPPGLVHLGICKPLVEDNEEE

pKd	Binder
below the threshold	PYSESDDDWC [CACNA1A, O00555]
below the threshold	MQHQRTHTRV [ZSCAN30, Q86W11]

target: T4, SNTG1, Q9NSN8; experiment: holdup assay; parameters: key: below the threshold = too weak to quantify, mostly under pKd 3.1 to 4; settings: plain residues with an end cap or a label only (N-terminal biotin on a linker: ado-ado)

pKd	Binder
3.66	PYSESDDDWC [CACNA1A, O00555]
below the threshold	MQHQRTHTRV [ZSCAN30, Q86W11]

target: GRIP2_5, Q9C0E4; experiment: holdup assay; parameters: key: below the threshold = too weak to quantify, mostly under pKd 3.1 to 4; settings: plain residues with an end cap or a label only (N-terminal biotin on a linker: ado-ado)
Sequence (Q9C0E4 544-642): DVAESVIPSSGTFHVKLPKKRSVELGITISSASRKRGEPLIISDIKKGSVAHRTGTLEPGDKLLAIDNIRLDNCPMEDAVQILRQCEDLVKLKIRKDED

pKd	Binder
below the threshold	PYSESDDDWC [CACNA1A, O00555]
below the threshold	MQHQRTHTRV [ZSCAN30, Q86W11]

target: SCRIB_3, Q14160; experiment: holdup assay; parameters: key: below the threshold = too weak to quantify, mostly under pKd 3.1 to 4; settings: plain residues with an end cap or a label only (N-terminal biotin on a linker: ado-ado)
Sequence (Q14160 999-1103): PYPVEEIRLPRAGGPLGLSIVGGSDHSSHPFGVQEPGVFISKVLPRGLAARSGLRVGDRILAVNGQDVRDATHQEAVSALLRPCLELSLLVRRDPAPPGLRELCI

pKd	Binder
3.83	PYSESDDDWC [CACNA1A, O00555]
3.51	MQHQRTHTRV [ZSCAN30, Q86W11]

target: T5, HTRA3, P83110; experiment: holdup assay; parameters: key: below the threshold = too weak to quantify, mostly under pKd 3.1 to 4; settings: plain residues with an end cap or a label only (N-terminal biotin on a linker: ado-ado)

pKd	Binder
5.79	PYSESDDDWC [CACNA1A, O00555]
below the threshold	MQHQRTHTRV [ZSCAN30, Q86W11]

target: GOPC, Q9HD26; experiment: holdup assay; parameters: key: below the threshold = too weak to quantify, mostly under pKd 3.1 to 4; settings: plain residues with an end cap or a label only (N-terminal biotin on a linker: ado-ado)

pKd	Binder
below the threshold	PYSESDDDWC [CACNA1A, O00555]
4.41	MQHQRTHTRV [ZSCAN30, Q86W11]

target: Inadl_10, Q8NI35; experiment: holdup assay; parameters: key: below the threshold = too weak to quantify, mostly under pKd 3.1 to 4; settings: plain residues with an end cap or a label only (N-terminal biotin on a linker: ado-ado)
Sequence (Q8NI35 1673-1763): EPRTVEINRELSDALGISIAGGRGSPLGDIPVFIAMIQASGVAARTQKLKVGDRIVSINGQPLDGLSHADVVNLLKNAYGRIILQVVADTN

pKd	Binder
below the threshold	PYSESDDDWC [CACNA1A, O00555]
below the threshold	MQHQRTHTRV [ZSCAN30, Q86W11]

target: GRID2IP_2, A4D2P6; experiment: holdup assay; parameters: key: below the threshold = too weak to quantify, mostly under pKd 3.1 to 4; settings: plain residues with an end cap or a label only (N-terminal biotin on a linker: ado-ado)
Sequence (A4D2P6 272-370): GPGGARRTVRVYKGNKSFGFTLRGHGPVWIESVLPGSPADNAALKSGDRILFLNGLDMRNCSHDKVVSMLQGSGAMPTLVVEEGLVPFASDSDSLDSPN

pKd	Binder
below the threshold	PYSESDDDWC [CACNA1A, O00555]
3.77	MQHQRTHTRV [ZSCAN30, Q86W11]

target: PICK1, Q9NRD5; experiment: holdup assay; parameters: key: below the threshold = too weak to quantify, mostly under pKd 3.1 to 4; settings: plain residues with an end cap or a label only (N-terminal biotin on a linker: ado-ado)
Sequence (Q9NRD5 17-115): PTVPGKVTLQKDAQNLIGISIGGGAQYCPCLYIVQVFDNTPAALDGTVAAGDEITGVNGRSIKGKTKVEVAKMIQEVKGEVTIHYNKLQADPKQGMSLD

pKd	Binder
below the threshold	PYSESDDDWC [CACNA1A, O00555]
below the threshold	MQHQRTHTRV [ZSCAN30, Q86W11]

target: SCRIB_2, Q14160; experiment: holdup assay; parameters: key: below the threshold = too weak to quantify, mostly under pKd 3.1 to 4; settings: plain residues with an end cap or a label only (N-terminal biotin on a linker: ado-ado)
Sequence (Q14160 857-960): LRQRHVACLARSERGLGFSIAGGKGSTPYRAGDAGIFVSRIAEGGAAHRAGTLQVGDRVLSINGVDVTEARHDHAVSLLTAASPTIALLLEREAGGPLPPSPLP

pKd	Binder
below the threshold	PYSESDDDWC [CACNA1A, O00555]
3.79	MQHQRTHTRV [ZSCAN30, Q86W11]

target: T6, PCLO, Q9Y6V0; experiment: holdup assay; parameters: key: below the threshold = too weak to quantify, mostly under pKd 3.1 to 4; settings: plain residues with an end cap or a label only (N-terminal biotin on a linker: ado-ado)

pKd	Binder
below the threshold	PYSESDDDWC [CACNA1A, O00555]
below the threshold	MQHQRTHTRV [ZSCAN30, Q86W11]

target: NHERF4_2, Q86UT5; experiment: holdup assay; parameters: key: below the threshold = too weak to quantify, mostly under pKd 3.1 to 4; settings: plain residues with an end cap or a label only (N-terminal biotin on a linker: ado-ado)
Sequence (Q86UT5 220-308): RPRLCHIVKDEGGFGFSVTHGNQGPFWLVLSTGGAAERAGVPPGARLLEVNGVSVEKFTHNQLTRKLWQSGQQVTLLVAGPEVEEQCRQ

pKd	Binder
below the threshold	PYSESDDDWC [CACNA1A, O00555]
below the threshold	MQHQRTHTRV [ZSCAN30, Q86W11]

target: MAGI2_4, Q86UL8; experiment: holdup assay; parameters: key: below the threshold = too weak to quantify, mostly under pKd 3.1 to 4; settings: plain residues with an end cap or a label only (N-terminal biotin on a linker: ado-ado)
Sequence (Q86UL8 772-865): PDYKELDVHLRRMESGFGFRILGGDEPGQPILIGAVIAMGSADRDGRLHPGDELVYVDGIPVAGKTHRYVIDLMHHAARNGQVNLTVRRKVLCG

pKd	Binder
below the threshold	PYSESDDDWC [CACNA1A, O00555]
3.49	MQHQRTHTRV [ZSCAN30, Q86W11]

target: GRIP2_7, Q9C0E4; experiment: holdup assay; parameters: key: below the threshold = too weak to quantify, mostly under pKd 3.1 to 4; settings: plain residues with an end cap or a label only (N-terminal biotin on a linker: ado-ado)
Sequence (Q9C0E4 934-1023): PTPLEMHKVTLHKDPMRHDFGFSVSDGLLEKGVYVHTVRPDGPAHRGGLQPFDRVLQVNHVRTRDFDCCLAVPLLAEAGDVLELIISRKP

pKd	Binder
below the threshold	PYSESDDDWC [CACNA1A, O00555]
below the threshold	MQHQRTHTRV [ZSCAN30, Q86W11]

target: SNX27, Q96L92; experiment: holdup assay; parameters: key: below the threshold = too weak to quantify, mostly under pKd 3.1 to 4; settings: plain residues with an end cap or a label only (N-terminal biotin on a linker: ado-ado)

pKd	Binder
4.09	PYSESDDDWC [CACNA1A, O00555]
4.38	MQHQRTHTRV [ZSCAN30, Q86W11]

target: T7, CARD11, Q9BXL7; experiment: holdup assay; parameters: key: below the threshold = too weak to quantify, mostly under pKd 3.1 to 4; settings: plain residues with an end cap or a label only (N-terminal biotin on a linker: ado-ado)

pKd	Binder
below the threshold	PYSESDDDWC [CACNA1A, O00555]
below the threshold	MQHQRTHTRV [ZSCAN30, Q86W11]

target: DLG4_3, P78352; experiment: holdup assay; parameters: key: below the threshold = too weak to quantify, mostly under pKd 3.1 to 4; settings: plain residues with an end cap or a label only (N-terminal biotin on a linker: ado-ado)
Sequence (P78352 306-403): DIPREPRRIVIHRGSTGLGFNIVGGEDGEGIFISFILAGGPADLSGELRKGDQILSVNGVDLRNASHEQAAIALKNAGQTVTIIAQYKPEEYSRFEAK

pKd	Binder
below the threshold	PYSESDDDWC [CACNA1A, O00555]
4.22	MQHQRTHTRV [ZSCAN30, Q86W11]

target: DLG5_1, Q8TDM6; experiment: holdup assay; parameters: key: below the threshold = too weak to quantify, mostly under pKd 3.1 to 4; settings: plain residues with an end cap or a label only (N-terminal biotin on a linker: ado-ado)
Sequence (Q8TDM6 617-713): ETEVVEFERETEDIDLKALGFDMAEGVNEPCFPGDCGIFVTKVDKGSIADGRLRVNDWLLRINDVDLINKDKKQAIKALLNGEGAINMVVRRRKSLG

pKd	Binder
below the threshold	PYSESDDDWC [CACNA1A, O00555]
below the threshold	MQHQRTHTRV [ZSCAN30, Q86W11]

target: T8, LNX2_2, Q8N448; experiment: holdup assay; parameters: key: below the threshold = too weak to quantify, mostly under pKd 3.1 to 4; settings: plain residues with an end cap or a label only (N-terminal biotin on a linker: ado-ado)

pKd	Binder
4	PYSESDDDWC [CACNA1A, O00555]
4.47	MQHQRTHTRV [ZSCAN30, Q86W11]

target: T9, NHERF3_3, Q5T2W1; experiment: holdup assay; parameters: key: below the threshold = too weak to quantify, mostly under pKd 3.1 to 4; settings: plain residues with an end cap or a label only (N-terminal biotin on a linker: ado-ado)

pKd	Binder
below the threshold	PYSESDDDWC [CACNA1A, O00555]
3.64	MQHQRTHTRV [ZSCAN30, Q86W11]

target: TJP2_1, Q9UDY2; experiment: holdup assay; parameters: key: below the threshold = too weak to quantify, mostly under pKd 3.1 to 4; settings: plain residues with an end cap or a label only (N-terminal biotin on a linker: ado-ado)
Sequence (Q9UDY2 24-128): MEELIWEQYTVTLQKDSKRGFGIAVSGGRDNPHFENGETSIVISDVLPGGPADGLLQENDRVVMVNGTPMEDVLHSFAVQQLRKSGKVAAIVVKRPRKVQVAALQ

pKd	Binder
3.64	PYSESDDDWC [CACNA1A, O00555]
4.16	MQHQRTHTRV [ZSCAN30, Q86W11]
